Results reported in patent US6638503.

Tests used:
Bovine serum albumin = Bovine serum albumin (UniProt P02769)
Human fibrinogen = Human fibrinogen (UniProt P02671)
[1] = tested on: bovine serum albumin, haemoglobin, fibrinogen and thrombin

Sequence of Human fibrinogen (P02671 20-629, chain 1 of 3): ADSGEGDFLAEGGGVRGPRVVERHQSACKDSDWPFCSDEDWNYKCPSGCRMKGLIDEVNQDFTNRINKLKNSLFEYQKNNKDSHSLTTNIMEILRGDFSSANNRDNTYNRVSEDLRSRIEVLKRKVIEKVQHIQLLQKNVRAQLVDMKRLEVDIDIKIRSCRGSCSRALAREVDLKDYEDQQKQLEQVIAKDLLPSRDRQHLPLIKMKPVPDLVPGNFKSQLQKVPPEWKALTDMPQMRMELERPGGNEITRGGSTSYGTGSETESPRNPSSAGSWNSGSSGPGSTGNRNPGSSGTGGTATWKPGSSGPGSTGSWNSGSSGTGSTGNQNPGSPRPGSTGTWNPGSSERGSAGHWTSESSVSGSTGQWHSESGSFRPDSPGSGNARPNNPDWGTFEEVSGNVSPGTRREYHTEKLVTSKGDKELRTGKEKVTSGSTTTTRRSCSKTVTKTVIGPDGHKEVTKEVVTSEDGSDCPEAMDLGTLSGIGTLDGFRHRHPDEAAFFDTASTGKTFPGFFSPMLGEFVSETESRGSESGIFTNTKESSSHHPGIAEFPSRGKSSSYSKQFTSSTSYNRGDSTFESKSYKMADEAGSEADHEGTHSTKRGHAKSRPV
Sequence of Human fibrinogen (chain, as listed by the source, chain 2 of 3): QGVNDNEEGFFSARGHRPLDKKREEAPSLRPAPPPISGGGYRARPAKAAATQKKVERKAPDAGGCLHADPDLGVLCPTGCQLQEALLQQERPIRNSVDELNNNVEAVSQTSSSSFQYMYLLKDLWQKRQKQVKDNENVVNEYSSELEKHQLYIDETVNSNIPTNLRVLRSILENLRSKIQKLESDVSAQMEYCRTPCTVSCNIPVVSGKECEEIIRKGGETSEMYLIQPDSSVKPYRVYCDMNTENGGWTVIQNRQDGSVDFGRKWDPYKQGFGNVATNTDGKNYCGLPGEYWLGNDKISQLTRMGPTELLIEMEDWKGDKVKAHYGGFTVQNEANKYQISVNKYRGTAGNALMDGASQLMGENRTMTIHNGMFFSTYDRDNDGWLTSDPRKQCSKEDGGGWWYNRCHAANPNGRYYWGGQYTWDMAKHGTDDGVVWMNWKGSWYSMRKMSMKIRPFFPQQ
Sequence of Human fibrinogen (chain, as listed by the source, chain 3 of 3): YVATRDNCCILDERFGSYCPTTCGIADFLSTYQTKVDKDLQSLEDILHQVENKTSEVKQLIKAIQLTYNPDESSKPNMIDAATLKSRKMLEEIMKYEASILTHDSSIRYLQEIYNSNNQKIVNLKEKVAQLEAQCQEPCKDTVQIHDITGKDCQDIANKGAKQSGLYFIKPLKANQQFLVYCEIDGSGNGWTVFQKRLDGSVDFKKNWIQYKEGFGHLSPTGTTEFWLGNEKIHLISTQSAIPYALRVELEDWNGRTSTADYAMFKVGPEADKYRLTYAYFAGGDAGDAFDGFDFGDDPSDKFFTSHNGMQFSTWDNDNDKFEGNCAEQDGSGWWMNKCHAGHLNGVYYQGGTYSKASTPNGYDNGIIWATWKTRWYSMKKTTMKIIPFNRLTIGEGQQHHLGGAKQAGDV
Sequence of Bovine serum albumin (P02769 25-607): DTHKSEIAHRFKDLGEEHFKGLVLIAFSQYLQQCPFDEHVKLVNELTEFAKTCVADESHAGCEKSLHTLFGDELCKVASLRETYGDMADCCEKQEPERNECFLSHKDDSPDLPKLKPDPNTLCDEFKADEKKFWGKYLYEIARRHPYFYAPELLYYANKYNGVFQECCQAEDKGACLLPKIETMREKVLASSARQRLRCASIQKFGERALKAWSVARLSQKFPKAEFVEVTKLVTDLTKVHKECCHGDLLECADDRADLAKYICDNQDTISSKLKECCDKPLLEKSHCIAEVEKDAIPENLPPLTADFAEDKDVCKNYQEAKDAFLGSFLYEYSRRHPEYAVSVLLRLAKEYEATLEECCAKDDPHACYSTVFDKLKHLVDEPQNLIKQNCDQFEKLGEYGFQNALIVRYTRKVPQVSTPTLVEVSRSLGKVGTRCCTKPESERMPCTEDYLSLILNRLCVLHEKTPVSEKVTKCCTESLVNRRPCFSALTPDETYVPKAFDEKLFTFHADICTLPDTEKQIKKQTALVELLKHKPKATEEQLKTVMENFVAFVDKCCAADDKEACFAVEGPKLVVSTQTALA
Sequence of plasminogen (chain, as listed by the source): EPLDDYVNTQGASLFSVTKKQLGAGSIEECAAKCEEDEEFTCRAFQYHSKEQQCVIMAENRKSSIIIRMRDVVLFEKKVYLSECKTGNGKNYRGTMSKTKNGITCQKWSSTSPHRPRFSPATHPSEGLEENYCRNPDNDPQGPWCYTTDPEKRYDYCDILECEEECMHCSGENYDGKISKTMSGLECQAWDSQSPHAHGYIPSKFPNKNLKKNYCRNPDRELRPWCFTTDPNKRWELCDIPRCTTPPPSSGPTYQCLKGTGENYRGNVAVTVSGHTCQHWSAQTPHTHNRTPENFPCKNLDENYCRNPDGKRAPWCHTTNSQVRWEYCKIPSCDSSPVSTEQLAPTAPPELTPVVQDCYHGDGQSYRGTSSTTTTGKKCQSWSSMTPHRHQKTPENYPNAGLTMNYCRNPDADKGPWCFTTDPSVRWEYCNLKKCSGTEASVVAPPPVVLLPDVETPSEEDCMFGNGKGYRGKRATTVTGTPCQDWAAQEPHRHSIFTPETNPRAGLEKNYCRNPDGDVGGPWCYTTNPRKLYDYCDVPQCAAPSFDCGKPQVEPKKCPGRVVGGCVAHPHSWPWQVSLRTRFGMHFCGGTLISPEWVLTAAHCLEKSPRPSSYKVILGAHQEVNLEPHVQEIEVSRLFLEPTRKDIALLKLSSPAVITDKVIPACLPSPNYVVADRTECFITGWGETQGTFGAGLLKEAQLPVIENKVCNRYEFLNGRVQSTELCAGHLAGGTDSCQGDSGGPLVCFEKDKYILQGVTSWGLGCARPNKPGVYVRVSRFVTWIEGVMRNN

actinokinase (fibrinolytic enzyme from Streptomyces megasporus SD5)
Relative activity (%) (Bovine serum albumin): 32%
Relative activity (%) (Fibrin): 100%
fibrinolytic activity (Fibrin): 1.0×10^3 µmole/ tyrosine mg^-1 protein min^-1
Relative activity (%) (Hemoglobin): 8%
Relative activity (%) (Human fibrinogen): 12%
Relative activity (%) (Thrombin): 27%
proteolytic activity, % of the control [1]: varied from 5-30% of the control
caseinolytic activity (casein): 1.0×10^2 µmole/tyrosine mg^-1 protein min^-1
amidolytic activity with and without added plasminogen (plasminogen): Amydolytic activity exhibited by the enzyme was same in presence and absence of plasminogen
